Legend:
[1] = target: T1, human EpCAM antigen on Kato III cells or human EpCAM transfected CHO cells (human, UniProt P16422 24-265); assay: cell-based or functional assay
T1 sequence: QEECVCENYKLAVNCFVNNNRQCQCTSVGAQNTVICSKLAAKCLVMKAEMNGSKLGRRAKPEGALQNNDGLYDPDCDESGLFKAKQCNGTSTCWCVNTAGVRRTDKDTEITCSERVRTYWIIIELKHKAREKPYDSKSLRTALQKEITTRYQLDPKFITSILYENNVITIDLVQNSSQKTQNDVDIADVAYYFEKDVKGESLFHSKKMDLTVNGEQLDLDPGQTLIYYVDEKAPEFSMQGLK

[2] = target: cynomolgus CD3 antigen on cynomolgus PBMC / macaque T cells (Macaca fascicularis (cynomolgus), UniProt Q95LI5 22-117; Q95LI7 23-110; Q95LI8 22-103); assay: cell-based or functional assay
[3] = target: T2, cynomolgus EpCAM antigen on transfected CHO cells (cynomolgus, UniProt Q1WER1 24-265 (rhesus entry)); assay: FACS on cynomolgus EpCAM transfected CHO cells, anti-His detection
T2 construct: 48 holds the extracellular portion
T2 sequence: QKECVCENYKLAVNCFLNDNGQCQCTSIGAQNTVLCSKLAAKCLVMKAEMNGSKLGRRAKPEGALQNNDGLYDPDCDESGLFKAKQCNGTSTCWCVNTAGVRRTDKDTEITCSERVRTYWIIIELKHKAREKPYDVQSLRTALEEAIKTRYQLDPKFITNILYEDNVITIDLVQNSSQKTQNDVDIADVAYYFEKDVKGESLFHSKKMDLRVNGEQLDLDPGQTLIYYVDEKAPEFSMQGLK
Text: FIG. 8: FACS assay for binding of 2G8LH×SEQ ID NO. 12, 2G8LH×SEQ ID NO. 10, 2G8LH×SEQ ID NO. 16, 2G8LH×SEQ ID NO. 14, 2G8HL×SEQ ID NO. 12, 2G8HL×SEQ ID NO. 10, 2G8HL×SEQ ID NO. 16 and 2G8HL×SEQ ID NO. 14 on Kato III (FIG. 8A) cells or cynomolgus EpCAM transfected CHO cells (FIG. 8B) and HPB-ALL cells. Antigen binding was clearly detectable for the anti EpCAM specificities as well as for the anti CD3 specificities. As a negative control for binding to cynomolgus EpCAM, the 5-10LH×SEQ ID NO.
Binding of the bifunctional constructs from cell culture supernatants or binding of purified bifunctional constructs to the human EpCAM antigen on Kato III cells or cynomolgus EpCAM transfected CHO cells and to the CD3 antigen on HPB-ALL cells was tested using an FACS assay. For that purpose 2.5×10⁵ cells were incubated with 50 μl supernatant or with 5 μg/ml of the purified constructs in 50 μl PBS with 2% FCS. The binding of the constructs was detected with an anti-His antibody (Penta-His Antibody, BSA free, obtained from Qiagen GmbH, Hilden, FRG) at 2 μg/ml in 50 μl PBS with 2% FCS. […] The samples were measured on a FACSscan (BD biosciences, Heidelberg, FRG). Antigen binding was clearly detectable for the anti EpCAM specificities as well as for the anti CD3 specificities (see FIG. 8). As a negative control for binding to cynomolgus EpCAM, the 5-10LH×SEQ ID NO. […] The 5-10LH part only binds to human EpCAM.

Sequence of cynomolgus CD3 antigen on cynomolgus PBMC / macaque T cells (Q95LI5 22-117, chain 1 of 3): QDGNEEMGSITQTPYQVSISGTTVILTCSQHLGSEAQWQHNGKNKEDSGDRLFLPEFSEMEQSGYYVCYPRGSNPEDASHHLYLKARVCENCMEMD
Sequence of cynomolgus CD3 antigen on cynomolgus PBMC / macaque T cells (Q95LI7 23-110, chain 2 of 3): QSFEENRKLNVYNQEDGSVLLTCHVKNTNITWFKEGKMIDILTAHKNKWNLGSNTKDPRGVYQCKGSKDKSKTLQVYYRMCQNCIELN
Sequence of cynomolgus CD3 antigen on cynomolgus PBMC / macaque T cells (Q95LI8 22-103, chain 3 of 3): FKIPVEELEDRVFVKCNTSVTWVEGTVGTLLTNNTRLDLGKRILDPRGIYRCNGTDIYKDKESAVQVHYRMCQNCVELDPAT

B1: 5-10LH×SEQ ID NO. 10 bispecific single chain antibody (bispecific antibody)
chain: ELVMTQSPSSLTVTAGEKVTMSCKSSQSLLNSGNQKNYLTWYQQKPGQPPKLLIYWASTRESGVPDRFTGSGSGTDFTLTISSVQAEDLAVYYCQNDYSYPLTFGAGTKLEIKGGGGSGGGGSGGGGSEVQLLEQSGAELVRPGTSVKISCKASGYAFTNYWLGWVKQRPGHGLEWIGDIFPGSGNIHYNEKFKGKATLTADKSSSTAYMQLSSLTFEDSAVYFCARLRNWDEPMDYWGQGTTVTVSSGGGGSEVKLLESGGGLVQPKGSLKLSCAASGFTFNTYAMNWVRQAPGKGLEWVARIRSKYNNYATYYADSVKDRFTISRDDSQSILYLQMNNLKTEDTAMYYCVRHGNFGNSYVSWFAYWGQGTLVTVSAGGGGSGGGGSGGGGSQAVVTQESALTTSPGETVTLTCRSSTGAVTTSNYANWVQEKPDHLFTGLIGGTNKRAPGVPARFSGSLIGDKAALTITGAQTEDEAIYFCALWYSNLWVFGGGTKLTVLHHHHHH
EC50 (half maximal killing), FACS-based cytotoxicity, Kato III target cells, human PBMC effector cells [1]: 0.0058 ng/mL
EC50 (half maximal killing), FACS-based cytotoxicity, Kato III target cells, cynomolgus PBMC effector cells [2]: 0.052 ng/mL
binding result [3]: no binding (tested: 50 µl supernatant or 5 µg/ml)

From patent US20090252683A1 (Amgen, published 2009)
